Assay results as given in patent publication US20030153020.

Molecular target: T1, LPXTG peptide DABCYL-QALPETGEE-EDANS
T1 chain: QALPETGEE

B1: SrtADN (SrtA in which the NH2-terminal membrane anchor segment is replaced with a six histidine tag) (protein)
chain: KPHIDNYLHDKDKDEKIEQYDKNVKEQASKDKKQQAKPQIPKDKSKVAGYIEIPDADIKEPVYPGPATPEQLNRGVSFAEENESLDDQNISIAGHTFIDRPNYQFTNLKAAKKGSMVYFKVGNETRKYKMTSIRDVKPTDVGVLDEQKGKDKQLTLITCDDYNEKTGVWEKRKIFVATEVK
For B1, the “LPXTG peptide cleavage activity of MTSET-inactivated SrtADN after 10 mM DTT” value was “restored 80% of LPXTG peptide cleavage activity”, the “cleavage of LPXTG peptide in the presence of 0.2 M NH2OH (fluorescence)” value was “Addition of 0.2 M NH2OH to this reaction resulted in an increase in fluorescence” and the “cleavage of LPXTG peptide measured as an increase in fluorescence” value was “SrtADN catalyzed cleavage of the substrate”. For the same protein, the “hydroxylaminolysis of LPXTG peptide after pre-incubation with MTSET” value was “pre-incubation with MTSET abolished all enzymatic activity”.
